Data on two substances can be found in article PMC9033776.

Assay [1] has as its target BRD4-bromo1 (amino acids 54–168) (UniProt O60885). As to the kind of experiment: ITC; 3 mM H2A.Z peptides titrated into 0.3 mM bromodomains; 25 °C; 20 mM Hepes-Na pH 7.5, 100 mM NaCl; One Set of Binding Sites model.
For assay [2], the target named is BRD4-bromo2 domain (amino acids 351–457) (UniProt O60885). The description is as above.

Consider “di-acetylated H2A.Z (1–15) K4acK7ac peptide (from UniProt P0C0S5 2-16)”, for which the Kd (in general, a measure of binding affinity in units of concentration) is 4810 µM in assay [1] and 820 µM in assay [2].
Taken in the same sequence, the figures for “tri-acetylated H2A.Z (1–15) K4acK7acK11ac peptide (from UniProt P0C0S5 2-16)” were 2270 µM and 600 µM.
